The target in this assay is Human CDw52 (human) (UniProt P31358). Description: cell-based or functional assay.

CAMPATH (antibody) gave a 51Cr release assay, lysis (apoptosis) of macrophage-cell line THP-1 after 18 h of 70% and a 51Cr release assay, lysis (apoptosis) of macrophage-cell line U-937 after 18 h of 55%.

Source of the values: US20060110396A1.
